Measurements as given in the supplement of paper PMC9112550, “Optimization of the antimicrobial peptide Bac7 by deep mutational scanning” (BMC Biology, 2022).

Each sequence was assayed on Escherichia coli TOP10 (assay: shrunken log2 fold change of peptide-encoding DNA abundance (4.5 h post-induction vs induction); higher = less antimicrobial activity (less host growth inhibition)). Conditions: time post-induction: 4.5 h; library: site-saturation at positions 5, 18, 19, 20.
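Further: peptides expressed intracellularly from a pBAD plasmid library in pooled LB shake-flask culture, induced with 0.3% L-arabinose, DNA abundance read by NGS, three biological replicates, DESeq2 with apeglm shrinkage.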

| Sequence | shrunken log2 fold change |
| --- | --- |
| RRIRMRPPRLPRPRPRPVSPPRP | 0.418 |
| RRIRSRPPRLPRPRPRPNNHPRP | -0.276 |
| RRIRVRPPRLPRPRPRPLHIPRP | -0.528 |
| RRIRSRPPRLPRPRPRPRIFPRP | 0.206 |
| RRIRPRPPRLPRPRPRPCASPRP | -0.0883 |
| RRIRLRPPRLPRPRPRPHIVPRP | -0.105 |
| RRIRRRPPRLPRPRPRPGSDPRP | 0.421 |
| RRIRVRPPRLPRPRPRPSPWPRP | 0.021 |
| RRIRFRPPRLPRPRPRPASQPRP | -0.0114 |
| RRIRCRPPRLPRPRPRPTRGPRP | 0.807 |
| RRIRNRPPRLPRPRPRPHYNPRP | -0.619 |
| RRIRWRPPRLPRPRPRPLICPRP | 0.803 |
| RRIRFRPPRLPRPRPRPDDWPRP | 0.044 |
| RRIRHRPPRLPRPRPRPKYKPRP | -0.679 |
| RRIRVRPPRLPRPRPRPYYDPRP | -0.429 |
| RRIRKRPPRLPRPRPRPIYTPRP | -0.0648 |
| RRIRQRPPRLPRPRPRPIRQPRP | 0.0167 |
| RRIRDRPPRLPRPRPRPRWGPRP | 0.471 |
| RRIRMRPPRLPRPRPRPSKRPRP | 0.386 |
| RRIRMRPPRLPRPRPRPDDKPRP | 1.43 |
| RRIRDRPPRLPRPRPRPIVSPRP | 0.041 |
| RRIRYRPPRLPRPRPRPPQRPRP | 0.00441 |
| RRIRLRPPRLPRPRPRPSSPPRP | -0.115 |
| RRIRCRPPRLPRPRPRPEILPRP | -0.0141 |
| RRIRKRPPRLPRPRPRPYTWPRP | -0.231 |

| Sequence | shrunken log2 fold change |
| --- | --- |
| RRIRERPPRLPRPRPRPMCFPRP | -0.176 |
| RRIRYRPPRLPRPRPRPVKSPRP | -0.84 |
| RRIRSRPPRLPRPRPRPKTPPRP | 0.405 |
| RRIRIRPPRLPRPRPRPMTNPRP | -0.108 |
| RRIRGRPPRLPRPRPRPFQQPRP | -0.0372 |
| RRIRIRPPRLPRPRPRPRPDPRP | 0.0926 |
| RRIRIRPPRLPRPRPRPVICPRP | -0.063 |
| RRIRMRPPRLPRPRPRPIFPPRP | 0.229 |
| RRIRMRPPRLPRPRPRPMGCPRP | 0.0612 |
| RRIRWRPPRLPRPRPRPWSRPRP | -0.132 |
| RRIRIRPPRLPRPRPRPMEPPRP | -0.101 |
| RRIRQRPPRLPRPRPRPNAKPRP | -0.0176 |
| RRIRCRPPRLPRPRPRPCNTPRP | -0.306 |
| RRIRQRPPRLPRPRPRPAPNPRP | 0.561 |
| RRIRVRPPRLPRPRPRPHEGPRP | -0.0348 |
| RRIRHRPPRLPRPRPRPISRPRP | -0.0532 |
| RRIRTRPPRLPRPRPRPVALPRP | 0.0946 |
| RRIRYRPPRLPRPRPRPVPNPRP | -0.0518 |
| RRIRYRPPRLPRPRPRPHASPRP | 0.0262 |
| RRIRPRPPRLPRPRPRPEVLPRP | -0.204 |
| RRIRMRPPRLPRPRPRPKRKPRP | 2.32 |
| RRIRKRPPRLPRPRPRPNRFPRP | -0.0658 |
| RRIRYRPPRLPRPRPRPMDFPRP | -0.205 |
| RRIRIRPPRLPRPRPRPQTVPRP | -0.271 |
| RRIRNRPPRLPRPRPRPSMGPRP | -0.0455 |

| Sequence | shrunken log2 fold change |
| --- | --- |
| RRIRKRPPRLPRPRPRPEGNPRP | 2.03 |
| RRIRKRPPRLPRPRPRPDFFPRP | 0.0109 |
| RRIRHRPPRLPRPRPRPVHRPRP | -0.143 |
| RRIRIRPPRLPRPRPRPCQTPRP | -0.02 |
| RRIRVRPPRLPRPRPRPCGRPRP | 0.168 |
| RRIRQRPPRLPRPRPRPHQQPRP | -0.101 |
| RRIRSRPPRLPRPRPRPAMNPRP | -0.66 |
| RRIRHRPPRLPRPRPRPSTKPRP | -0.383 |
| RRIRQRPPRLPRPRPRPLYCPRP | -0.672 |
| RRIRYRPPRLPRPRPRPKQHPRP | -0.304 |
| RRIRQRPPRLPRPRPRPVEAPRP | 0.341 |
| RRIRARPPRLPRPRPRPTMCPRP | -0.198 |
| RRIRERPPRLPRPRPRPYIKPRP | -0.573 |
| RRIRWRPPRLPRPRPRPWDGPRP | 0.00386 |
| RRIRGRPPRLPRPRPRPQPFPRP | -0.0232 |
| RRIRVRPPRLPRPRPRPKYGPRP | -0.141 |
| RRIRDRPPRLPRPRPRPNPEPRP | 0.0935 |
| RRIRLRPPRLPRPRPRPPLFPRP | 0.412 |
| RRIRQRPPRLPRPRPRPTQVPRP | -0.0311 |
| RRIRPRPPRLPRPRPRPHYFPRP | -0.335 |
| RRIRDRPPRLPRPRPRPTSPPRP | -0.267 |
| RRIRSRPPRLPRPRPRPCLEPRP | -0.0107 |
| RRIRVRPPRLPRPRPRPIRNPRP | -0.0718 |
| RRIRSRPPRLPRPRPRPWAEPRP | 0.0168 |
| RRIRDRPPRLPRPRPRPQGCPRP | 0.0122 |

| Sequence | shrunken log2 fold change |
| --- | --- |
| RRIRVRPPRLPRPRPRPAPHPRP | 0.286 |
| RRIRARPPRLPRPRPRPLASPRP | 0.841 |
| RRIRTRPPRLPRPRPRPPFKPRP | 0.332 |
| RRIRWRPPRLPRPRPRPYNRPRP | -1.09 |
| RRIRCRPPRLPRPRPRPAHRPRP | 0.392 |
| RRIRTRPPRLPRPRPRPDHWPRP | 0.0335 |
| RRIRIRPPRLPRPRPRPSCNPRP | -0.576 |
| RRIRTRPPRLPRPRPRPEVSPRP | -0.28 |
| RRIRYRPPRLPRPRPRPTHQPRP | -0.161 |
| RRIRRRPPRLPRPRPRPAACPRP | 0.0555 |
| RRIRTRPPRLPRPRPRPLARPRP | -0.0885 |
| RRIRLRPPRLPRPRPRPGYHPRP | -0.421 |
| RRIRHRPPRLPRPRPRPPDGPRP | 0.178 |
| RRIRVRPPRLPRPRPRPFEEPRP | -0.000457 |
| RRIRCRPPRLPRPRPRPCFLPRP | -0.622 |
| RRIRPRPPRLPRPRPRPYTIPRP | 0.00679 |
| RRIRLRPPRLPRPRPRPQHHPRP | -0.54 |
| RRIRIRPPRLPRPRPRPNHPPRP | -0.469 |
| RRIRGRPPRLPRPRPRPCIVPRP | 0.201 |
| RRIRCRPPRLPRPRPRPKWEPRP | 0.173 |
| RRIRQRPPRLPRPRPRPAARPRP | 0.246 |
| RRIRFRPPRLPRPRPRPNQCPRP | -0.511 |
| RRIRIRPPRLPRPRPRPEDTPRP | 0.0265 |
| RRIRWRPPRLPRPRPRPQWPPRP | 0.158 |
| RRIRERPPRLPRPRPRPRPSPRP | -0.093 |

| Sequence | shrunken log2 fold change |
| --- | --- |
| RRIRQRPPRLPRPRPRPERGPRP | 0.105 |
| RRIRPRPPRLPRPRPRPINFPRP | -0.168 |
| RRIRRRPPRLPRPRPRPYADPRP | -0.0932 |
| RRIRDRPPRLPRPRPRPCKLPRP | -0.0175 |
| RRIRERPPRLPRPRPRPRKKPRP | -0.111 |
| RRIRDRPPRLPRPRPRPSIIPRP | -0.266 |
| RRIRVRPPRLPRPRPRPCMMPRP | -0.33 |
| RRIRQRPPRLPRPRPRPFAHPRP | -0.0959 |
| RRIRDRPPRLPRPRPRPGDLPRP | 0.178 |
| RRIRIRPPRLPRPRPRPDYEPRP | -0.0916 |
| RRIRFRPPRLPRPRPRPIFIPRP | -0.777 |
| RRIRNRPPRLPRPRPRPRNRPRP | -0.000801 |
| RRIRARPPRLPRPRPRPTYPPRP | -0.0587 |
| RRIRPRPPRLPRPRPRPHFKPRP | 1.37 |
| RRIRERPPRLPRPRPRPEPFPRP | -0.0469 |
| RRIRQRPPRLPRPRPRPATAPRP | 0.115 |
| RRIRRRPPRLPRPRPRPMEAPRP | 0.0829 |
| RRIRKRPPRLPRPRPRPHSNPRP | 0.095 |
| RRIRNRPPRLPRPRPRPQCEPRP | 0.0399 |
| RRIRWRPPRLPRPRPRPEDFPRP | 0.0629 |
| RRIRVRPPRLPRPRPRPVSEPRP | 0.155 |
| RRIRMRPPRLPRPRPRPSKAPRP | 0.455 |
| RRIRYRPPRLPRPRPRPPEQPRP | 0.357 |
| RRIRFRPPRLPRPRPRPSWNPRP | -0.575 |
| RRIRDRPPRLPRPRPRPTFKPRP | -0.0434 |

| Sequence | shrunken log2 fold change |
| --- | --- |
| RRIRGRPPRLPRPRPRPFGFPRP | 0.828 |
| RRIRNRPPRLPRPRPRPVGWPRP | 0.855 |
| RRIRERPPRLPRPRPRPADQPRP | 0.0155 |
| RRIRRRPPRLPRPRPRPWVRPRP | -0.0986 |
| RRIRGRPPRLPRPRPRPPTFPRP | 0.572 |
| RRIRDRPPRLPRPRPRPKEGPRP | 0.32 |
| RRIRPRPPRLPRPRPRPACQPRP | 0.22 |
| RRIRLRPPRLPRPRPRPYKQPRP | -0.0145 |
| RRIRERPPRLPRPRPRPMKMPRP | 0.0259 |
| RRIRYRPPRLPRPRPRPSMNPRP | -0.863 |
| RRIRARPPRLPRPRPRPLNKPRP | 0.028 |
| RRIRARPPRLPRPRPRPRHEPRP | 0.638 |
| RRIRWRPPRLPRPRPRPFQNPRP | -0.235 |
| RRIRIRPPRLPRPRPRPPNLPRP | -0.188 |
| RRIRQRPPRLPRPRPRPINIPRP | -0.21 |
| RRIRERPPRLPRPRPRPSDNPRP | -1.25 |
| RRIRWRPPRLPRPRPRPTTCPRP | -0.00726 |
| RRIRVRPPRLPRPRPRPHDWPRP | 0.00123 |
| RRIRPRPPRLPRPRPRPYSEPRP | 0.0371 |
| RRIRSRPPRLPRPRPRPQSVPRP | -0.138 |
| RRIRTRPPRLPRPRPRPKYQPRP | -0.68 |
| RRIRFRPPRLPRPRPRPYSYPRP | -0.268 |
| RRIRPRPPRLPRPRPRPFSIPRP | -0.164 |
| RRIRYRPPRLPRPRPRPLSAPRP | -0.542 |
| RRIRIRPPRLPRPRPRPRVGPRP | 0.334 |
